Source: patent US11957737B2, “Methods of treating microbial infection and inflammation” (Colorado Seminary, Owner and Operator of University of …, priority 2017, dated 2024)

Columns and labels:
[1] = ferrous iron (Fe++) binding capacity of LF; conditions: following sodium peroxinitrite-induced nitration of the iron-containing form of the protein
Text: As noted above, LF binds ferrous iron (Fe++) and controls iron distribution throughout the body and its ability to bind to inflammatory and other cell membranes and impact the activities of these cells through its iron binding activities and other mechanisms. The inventors hypothesized that the antibacterial effect may be linked to the iron binding activity of LF and that this antibacterial effect may be disrupted by nitration.
However, sodium peroxinitrite caused changes that went far beyond the mere nitration of a few tyrosine residues to include destruction of tyrosine and tryptophan which at least in part were converted to unidentified reaction products. Nitration can occur as a consequence of the formation of reactive nitrogen species in the body and as a result of drug or chemical reactions, and/or environmental toxins in polluted air, water, or other routes of intake.

E. coli (ATCC 25922) = experiment: standard broth dilutions susceptibility test, read at 600 nm; assay type: cell-based
Procedure: The following methods were used to conduct the experiments described in Examples 1-3, below: The experiments were conducted using the standard broth dilutions susceptibility test (Jorgensen, J. H.; Turnidge, J. D., Susceptibility test methods: dilution and disk diffusion methods. In Manual of Clinical Microbiology, Eleventh Edition, American Society of Microbiology: 2015; pp 1253-73). Briefly, 1 μl of glycerol stock aliquot of E. coli (ATCC 25922) was inculcated into Tryptic Soya agar (TSA) (Sigma Aldrich 22091) plates and incubated at 37° C. for 24 hrs. Subsequently, 3-5 separate colonies were selected and transferred into 4 ml Tryptic Soya broth (TSB) (Sigma Aldrich 22092) and incubated at 37° C. for 24 hrs. After incubation, samples were diluted 4 ml into 50 ml TSB to make E. coli stock. 200 μl samples were then placed into wells of a 96-microwell plate. All samples were prepared in TSB, (Blank) using TSB, ERGO (OXIS International), LF (Sigma Aldrich) and NLF were diluted to 1 mg/ml. The nitration reaction was prepared following the method reported by Selzle et al (Determination of nitration degrees for the birch pollen allergen Bet v 1. Analytical and Bioanalytical Chemistry 2013, 405(27):8945-49). According to this procedure, 400 μl aliquots of 5.0 mg/ml (±5%) LF in aqueous solution were pipetted into glass vials. […] Using the plate reader (Tecan Infinite, M1000 PRO). […]

Molecule	iron-binding capacity of LF [1]	growth of E. coli (E. coli (ATCC 25922); LF 1 mg/ml or 2 mg/ml, ERGO 5 mM or 50 mM, compared to growth of E. coli without additions, FIGS. 1A and 1B)	inhibition of growth of E. coli by previously nitrated LF (E. coli (ATCC 25922); LF nitrated with sodium peroxynitrite, compared to native (non-nitrated) LF)
LF: Lactoferrin (LF) is an 80 kDa glycoprotein that exists in mucosal secretions from exocrine glands and neutrophil granules (protein, UniProt P02788 20-710, looked up) Lactotransferrin: GRRRSVQWCAVSQPEATKCFQWQRNMRKVRGPPVSCIKRDSPIQCIQAIAENRADAVTLDGGFIYEAGLAPYKLRPVAAEVYGTERQPRTHYYAVAVVKKGGSFQLNELQGLKSCHTGLRRTAGWNVPIGTLRPFLNWTGPPEPIEAAVARFFSASCVPGADKGQFPNLCRLCAGTGENKCAFSSQEPYFSYSGAFKCLRDGAGDVAFIRESTVFEDLSDEAERDEYELLCPDNTRKPVDKFKDCHLARVPSHAVVARSVNGKEDAIWNLLRQAQEKFGKDKSPKFQLFGSPSGQKDLLFKDSAIGFSRVPPRIDSGLYLGSGYFTAIQNLRKSEEEVAARRARVVWCAVGEQELRKCNQWSGLSEGSVTCSSASTTEDCIALVLKGEADAMSLDGGYVYTAGKCGLVPVLAENYKSQQSSDPDPNCVDRPVEGYLAVAVVRRSDTSLTWNSVKGKKSCHTAVDRTAGWNIPMGLLFNQTGSCKFDEYFSQSCAPGSDPRSNLCALCIGDEQGENKCVPNSNERYYGYTGAFRCLAENAGDVAFVKDVTVLQNTDGNNNEAWAKDLKLADFALLCLDGKRKPVTEARSCHLAMAPNHAVVSRMDKVERLKQVLLHQQAKFGRNGSDCPDKFCLFQSETKNLLFNDNTECLARLHGKTTYEKYLGPQYVAGITNLKKCSTSPLLEACEFLRK	remained intact	reduced the growth of E. coli	
nitrated LF: LF nitrated with sodium peroxynitrite at ONOO-/Tyr molar ratios of 10/1 and 40/1 (protein, UniProt P02788 20-710, looked up, tyrosine nitration by peroxynitrite) Lactotransferrin: GRRRSVQWCAVSQPEATKCFQWQRNMRKVRGPPVSCIKRDSPIQCIQAIAENRADAVTLDGGFIYEAGLAPYKLRPVAAEVYGTERQPRTHYYAVAVVKKGGSFQLNELQGLKSCHTGLRRTAGWNVPIGTLRPFLNWTGPPEPIEAAVARFFSASCVPGADKGQFPNLCRLCAGTGENKCAFSSQEPYFSYSGAFKCLRDGAGDVAFIRESTVFEDLSDEAERDEYELLCPDNTRKPVDKFKDCHLARVPSHAVVARSVNGKEDAIWNLLRQAQEKFGKDKSPKFQLFGSPSGQKDLLFKDSAIGFSRVPPRIDSGLYLGSGYFTAIQNLRKSEEEVAARRARVVWCAVGEQELRKCNQWSGLSEGSVTCSSASTTEDCIALVLKGEADAMSLDGGYVYTAGKCGLVPVLAENYKSQQSSDPDPNCVDRPVEGYLAVAVVRRSDTSLTWNSVKGKKSCHTAVDRTAGWNIPMGLLFNQTGSCKFDEYFSQSCAPGSDPRSNLCALCIGDEQGENKCVPNSNERYYGYTGAFRCLAENAGDVAFVKDVTVLQNTDGNNNEAWAKDLKLADFALLCLDGKRKPVTEARSCHLAMAPNHAVVSRMDKVERLKQVLLHQQAKFGRNGSDCPDKFCLFQSETKNLLFNDNTECLARLHGKTTYEKYLGPQYVAGITNLKKCSTSPLLEACEFLRK			did not inhibit the growth of E. coli as much as adding native (non-nitrated) LF
